Assay results published in patent publication US20230389573A1.

Legend:
[1] = target: SOP2 gelatine extracted from blue whiting skin and bone
[2] = target: SOP1 gelatine extracted from blue whiting skin and bone
[3] = target: Angiotensin-converting enzyme-I (ACE-1)
[4] = target: Renin
[5] = target: Angiotensin-converting enzyme-I (ACE-1); remark: listed apart in the source

Alcalase (EC number 3.4.21.62) (from UniProt P00780) (enzyme)
degree of hydrolysis (DH) after 4 h, pH-stat method [1]: 2.54%
degree of hydrolysis (DH) after 4 h, pH-stat method [2]: 1.87%

Blue whiting 3 KDa permeate (blood water fraction) (pool or library)
% ACE-I inhibition at 1 mg/mL [3]: 28.9%
% Renin inhibition at 1 mg/mL [4]: 10.6%

Blue whiting 10 KDa permeate (blood water fraction) (pool or library)
% ACE-I inhibition at 1 mg/mL [3]: 33.1%

Blue whiting retentate (blood water fraction) (pool or library)
% ACE-I inhibition at 1 mg/mL [3]: 59.4%

Mackerel 3 KDa permeate (blood water fraction) (pool or library)
% ACE-I inhibition at 1 mg/mL [3]: 83.9%
% Renin inhibition at 1 mg/mL [4]: 21%

Mackerel 10 KDa permeate (blood water fraction) (pool or library)
% ACE-I inhibition at 1 mg/mL [3]: 96.9%

Mackerel retentate (blood water fraction) (pool or library)
% ACE-I inhibition at 1 mg/mL [3]: 95.4%

Papain (EC number 3.4.22.2) (from UniProt P00784) (enzyme)
degree of hydrolysis (DH) after 4 h, pH-stat method [1]: 19.4%
degree of hydrolysis (DH) after 4 h, pH-stat method [2]: 20.4%

SOP1 gelatine alcalase hydrolysate (blue whiting skin and bone) (pool or library)
% ACE-1 inhibition at 1 mg/ml [5]: 26.8%

SOP1 gelatine papain hydrolysate (blue whiting skin and bone) (pool or library)
% ACE-1 inhibition at 1 mg/ml [5]: 73.1%

SOP2 gelatine alcalase hydrolysate (blue whiting skin and bone) (pool or library)
% ACE-1 inhibition at 1 mg/ml [5]: 25.1%

SOP2 gelatine papain hydrolysate (blue whiting skin and bone) (pool or library)
% ACE-1 inhibition at 1 mg/ml [5]: 71.1%

≤3 KDa peptide fraction of the SOP1 gelatine alcalase hydrolysate (pool or library)
% ACE-1 inhibition at 1 mg/ml [5]: 84.2%

≤3 KDa peptide fraction of the SOP1 gelatine papain hydrolysate (pool or library)
% ACE-1 inhibition at 1 mg/ml [5]: 80.5%

≤3 KDa peptide fraction of the SOP2 gelatine alcalase hydrolysate (pool or library)
% ACE-1 inhibition at 1 mg/ml [5]: 87.1%

≤3 KDa peptide fraction of the SOP2 gelatine papain hydrolysate (pool or library)
% ACE-1 inhibition at 1 mg/ml [5]: 84.5%
